Holding throughout (experiment): purified protein
What all share (conditions): 50 mM Tris/HCl pH 7.5, 25 °C, O2 co-substrate, Fe(II) enzyme

Data set [1] concerns T1, Cc1cccc(O)c1O.
T1 construct: full ORF in pET22b(+), E. coli BL21(DE3); Q Sepharose column purified, contaminated; no tag mentioned
The data set is classed as biochemical, Novosphingobium sp. PP1Y.

Data set [2] deals with Oc1cccc(-c2ccccc2)c1O.
In data set [3] the test system is [H][C@@]12CCc3c(ccc(O)c3O)[C@@]1([H])CC[C@]1(C)[C@@H](O)CC[C@@]21[H].
Substrate in data set [4]: Oc1cccc(-c2ccccc2)c1O
This is another data set of the same source.

Substrate in data set [5]: Cc1ccc(O)c(O)c1
The data set is classed as biochemical, Novosphingobium sp. PP1Y.

Substrate in data set [6]: Cc1cccc(O)c1O
The data set is classed as biochemical, Novosphingobium sp. PP1Y.

Substrate in data set [7]: Oc1ccccc1O
The data set is classed as biochemical, Novosphingobium sp. PP1Y.

Substrate in data set [8]: [H][C@@]12CCc3c(ccc(O)c3O)[C@@]1([H])CC[C@]1(C)[C@@H](O)CC[C@@]21[H]
In kind it is biochemical, Novosphingobium sp. PP1Y.

With PP28735 (Novosphingobium sp. PP1Y), the results for the Km in data set [1], in data set [2] and in data set [3] were 451 µM, 67.90 µM and 1.90 µM, respectively. For the same molecule, the turnover number (kcat) in data set [1] amounted to 1.47 s⁻¹; in data set [2] it was 18.6 s⁻¹; in data set [3], 38.2 s⁻¹. In addition, the kcat/Km was 3300 M⁻¹ s⁻¹ in data set [1], 270000 M⁻¹ s⁻¹ in data set [2] and 2.01e+07 M⁻¹ s⁻¹ in data set [3].

B1: PP00124 (Novosphingobium sp. PP1Y) (protein)
chain: MVAVTELGYLGLTVTDLDAWRSYAAEVAGMEIVDEGEGDCLYLRMDQWHHRIALHAGDTDDLAYLGWRVAGPVEFDAMVAQLAAAGIAVEVASEAEARERRVLGLAKLADPGGNPTEIFYAPQVDTHKPFHPGRPMFGRFLTGSEGIGHCILRQDDVAAAAAFYGLLGLRGSVEYHLQLPNGMVAQPYFMHCNERQHSIAFGLGPMEKRINHLMFEYTDLDDLGLAHDIVRARKIDVALQLGKHANDQALTFYCANPSGWLWEFGWGARKAPSQQEYYTRDIFGHGNEAAGYGMDIPLG
notes: full ORF in pET22b(+), E. coli BL21(DE3); Q-Sepharose batch purified; no tag mentioned
Take B1: the Km in data set [4] is 3.70 µM; in data set [5], 1.80 µM; in data set [6], 2.90 µM; in data set [7] it was 38.20 µM; in data set [8], 0.75 µM. The kcat turned out to be 13.8 s⁻¹ in data set [4]; 2.97 s⁻¹ in data set [5]; 10.2 s⁻¹ in data set [6]; 5.44 s⁻¹ in data set [7]; 8.6 s⁻¹ in data set [8]. The kcat/Km worked out at 3.72e+06 M⁻¹ s⁻¹ in data set [4]; 1.65e+06 M⁻¹ s⁻¹ in data set [5]; 3.53e+06 M⁻¹ s⁻¹ in data set [6]; 140000 M⁻¹ s⁻¹ in data set [7]; 1.14e+07 M⁻¹ s⁻¹ in data set [8].

B2: PP00193 (Novosphingobium sp. PP1Y) (protein)
chain: MALTGVLRPGYVQLRVLDLDEAIQHYRDRIGLNLVSVEDGRAFFQAFDEFDRHSIILREADSAGLDRMAFKVAKDADLDHFAERLLDMGVHVDIIPAGEDPGVGRKIRFNTPTAHVFDLYAEMELSETGPAVRNPDVWIAEPRGMRATRFDHCALNGVDISASAKIFVEALDFSVTEELVDEASGTRLGIFLSCSNKAHDVAFLGYPEDGRIHHTSFNLESWHDVGHAADIISRYDISLDIGPTRHGITRGQTIYFFDPSGNRNETFSGGYTYYPDNPRRMWQAENAGKAIFYYEKALNDRFMTVNT
notes: as for B1
As for B2, the Km in data set [4] came out at 3.15 µM; in data set [5] it was 1.89 µM; in data set [6], 3.17 µM; in data set [7], 1.69 µM. Also, the kcat in data set [4] is 30.5 s⁻¹; in data set [5], 120 s⁻¹; in data set [6], 225 s⁻¹; in data set [7] it was 194 s⁻¹. The kcat/Km in data set [4] was 9.7e+06 M⁻¹ s⁻¹; in data set [5], 6.35e+07 M⁻¹ s⁻¹; in data set [6], 7.09e+07 M⁻¹ s⁻¹; in data set [7] it was 1.15e+08 M⁻¹ s⁻¹.

B3: PP26077 (Novosphingobium sp. PP1Y) (protein)
chain: MGIKALGYVVVETAKPEEWNTFLTQFAGAMRAPDAADGAALYRVDDRVFRFRIEAGTREWFVAAGYELTDRAALDALAVRIGDAARPVEWADANEAAGRGAEAMFRTSDPAGNGLEFYCGDARSDKPFVSPIGVPEFLTGDLGMGHAVFSAPDFEETIAFHRDVVGFHETDMPRFHLMGPDAPSMGFAFLHADNGRHHSIAFGEGPVPPSGAVHIMLELPDLIEVGKAHDRMKRFGYPESATLGRHVNDETTGFYVQTPSGFDLEIGCDSLIIDPASWEVTKHEGISVWGHEWAWQKALKEQQEQEKGA
notes: as for B1
Turning to B3, in data set [4], the Km was 35.20 µM, the kcat was found to be 8.9 s⁻¹ and the kcat/Km was found to be 250000 M⁻¹ s⁻¹. Besides, in data set [6], the Km was determined as 2600 µM, the kcat came to 3 s⁻¹ and the kcat/Km was determined as 1200 M⁻¹ s⁻¹.

The values are drawn from article PMC9892492, “Bioconversion of 4-hydroxyestradiol by extradiol ring-cleavage dioxygenases from Novosphingobium sp. PP1Y” (Scientific Reports, 2023).
